Measurements reported in patent US20220185889.

Target: CTLA-4 Ig functionalized with GzmB substrate (UniProt P16410)
Sequence (P16410 38-161): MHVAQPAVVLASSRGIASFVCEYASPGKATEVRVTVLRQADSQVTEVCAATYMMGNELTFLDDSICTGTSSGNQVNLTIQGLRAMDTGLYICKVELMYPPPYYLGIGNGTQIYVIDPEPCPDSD

Chain of matrix metalloproteinase 2 (P08253 110-660): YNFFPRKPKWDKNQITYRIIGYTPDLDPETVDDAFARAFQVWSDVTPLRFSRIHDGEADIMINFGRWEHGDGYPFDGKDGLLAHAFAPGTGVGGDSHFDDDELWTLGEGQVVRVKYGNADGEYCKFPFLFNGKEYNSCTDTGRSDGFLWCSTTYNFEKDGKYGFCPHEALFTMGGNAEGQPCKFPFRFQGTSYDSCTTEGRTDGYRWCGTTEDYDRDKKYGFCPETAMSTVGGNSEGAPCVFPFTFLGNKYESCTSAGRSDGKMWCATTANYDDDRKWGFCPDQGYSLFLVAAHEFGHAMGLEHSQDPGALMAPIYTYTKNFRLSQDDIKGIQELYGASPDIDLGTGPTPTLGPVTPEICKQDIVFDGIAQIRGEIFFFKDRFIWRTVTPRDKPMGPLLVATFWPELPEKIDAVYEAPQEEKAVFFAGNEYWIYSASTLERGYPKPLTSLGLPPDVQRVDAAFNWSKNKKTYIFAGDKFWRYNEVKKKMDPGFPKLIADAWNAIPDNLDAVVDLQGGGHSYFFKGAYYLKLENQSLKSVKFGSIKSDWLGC
Chain of mannose-associated serine protease 1 (P48740 20-699): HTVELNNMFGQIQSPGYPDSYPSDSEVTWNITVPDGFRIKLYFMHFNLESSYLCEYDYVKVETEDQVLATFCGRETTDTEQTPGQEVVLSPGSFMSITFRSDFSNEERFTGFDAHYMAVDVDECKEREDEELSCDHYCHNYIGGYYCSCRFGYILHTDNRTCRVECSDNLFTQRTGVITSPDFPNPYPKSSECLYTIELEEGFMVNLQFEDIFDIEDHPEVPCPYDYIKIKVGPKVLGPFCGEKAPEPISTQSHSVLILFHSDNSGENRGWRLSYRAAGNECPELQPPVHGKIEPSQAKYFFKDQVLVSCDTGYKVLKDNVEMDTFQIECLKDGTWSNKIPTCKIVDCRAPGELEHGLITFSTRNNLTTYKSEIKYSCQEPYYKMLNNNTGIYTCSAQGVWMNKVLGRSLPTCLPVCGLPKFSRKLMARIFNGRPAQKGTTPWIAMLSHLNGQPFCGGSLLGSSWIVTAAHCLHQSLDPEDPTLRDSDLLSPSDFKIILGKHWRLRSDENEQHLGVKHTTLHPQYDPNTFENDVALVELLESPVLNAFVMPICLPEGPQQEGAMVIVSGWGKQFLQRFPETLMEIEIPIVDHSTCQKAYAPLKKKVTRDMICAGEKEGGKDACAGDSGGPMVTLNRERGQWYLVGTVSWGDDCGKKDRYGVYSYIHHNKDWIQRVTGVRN

Substance	in vitro cleavage assay
mannose-associated serine protease 1	no cross-cleavage by matrix, complement, or immune proteases
matrix metalloproteinase 9	no cross-cleavage by matrix, complement, or immune proteases
matrix metalloproteinase 15	no cross-cleavage by matrix, complement, or immune proteases
Cathepsin B	no cross-cleavage by matrix, complement, or immune proteases
granzyme B	modified CTLA-4 Ig demonstrated specific cleavage by GzmB
matrix metalloproteinase 2	no cross-cleavage by matrix, complement, or immune proteases
